Experiments:
[1] = target: T1, S2 subunit of the SARS-CoV-2 spike protein (Sino Biological 40590-V08B), His tag (SARS-CoV-2, UniProt P0DTC2 686-1213)
T1 construct: domain: S2 subunit

[2] = target: T2, RBD domain of the spike protein of SARS-CoV-2 virus (Acro Biosystems SPD-C52H3) (SARS-CoV-2, UniProt P0DTC2 319-537); assay: Affinity (SPR) by Octet; antigen not named, taken from the epitope column
T2 construct: domain: RBD domain

Row | Binder | HTRF deltaF [1] [deltaF] | Kd [2] [nM]
1 | IMPI-054 (antibody, V domains shown) VH: EVQLVESGGGLIQPGGSLRLSCAASGLTVSSNYMSWVRQAPGKGLEWVSIIYSGGSTYYADSVKGRFTISRDNSKNTLYLQMNSLRAEDTAVYYCARLGGYYYYGMDVWGQGTTVTVSS VL: DIQMTQSPSSLSASVGERVTITCQASQDIRNYLNWYQKKPGKAPKLLIYDSSNLETGVPSRFSGSGSGTDFTFTISSLQPEDIATYYCQQYDNLPITFGQGTRLEIK | 15.8 | –
2 | IMPI-042 (antibody, V domains shown) VH: EVQLVESGGGLIQPGGSLRLSCAASGLTVSSNYMSWVRQAPGKGLEWVSIIYSGGSTYYADSVKGRFTISRDNSKNTLYLQMNSLRAEDTAVYYCARLGGYYYYGMDVWGQGTTVTVSS VL: DIQMTQSPSSLSASVGERVTITCQASQDIRNYLNWYQKKPGKAPKLLIYDSSNLETGVPSRFSGGGSGTDFTFTISSLQPEDIATYYCQQYDNLPITFGQGTRLEIK | 1.6 | –
3 | IMPI-063 (antibody, V domains shown) VH: EVQLVESGGGVVRPGGSLRLSCAASGFTFDDYGMSWVRQAPGKGLEWVSGIYWNGGSTGYADSVKGRFTISRDNAKNSLYLQMNSLRAEDMALYYCARGVGATDYWGQGTLVTVSS VL: EIVLTQSPGTLSLSSGERATLACRASESVRGSFLAWYQQKPGQAPRLLIYGASRRATGIPDRFSGSGSGTDFTLTISRLEPEDFAVYYCQQYGNSPMCSFGQGTKLEIK | 411 | –
4 | YANG-1102 (antibody, V domains shown) VH: QVQLQESGPGLVKPSGTLSLTCAVSGGSISTTNWWSWVRQSPGRGLEWIGEIFHIGYTNYNPSLKSRVTISVDKSKNQFSLKLNSVTVADTAVYYCARRVVMDTAMAHFDCWGQGTLVTVSS VL: QSVLTQPPSVSGAPGQRVTISCTGSSSNIGAGYDVHWYQHLPGTAPKLLIYININRPSGVPDRFSGSKSGTSASLVIAGLQAEDGADYYCQSYDSSLSGWVFGGGTRLTVL | – | < 0.1
5 | YANG-1106 (antibody, V domains shown) VH: EVQLVESGGGLIQPGGSLRLSCAASEFIVSRNYMSWVRQAPGKGLEWVSVIYSGGSTFYADSVRGRFTISRDNSKNTLYLQMNSLRAEDTAVYYCARDYGDQYFDYWGQGTLVTVSS VL: EMVMTQSPATLSVSPGEKATLSCRASQTVSTNLAWYQQKPGQSPRLLIYGASTRATGIPARFSGSGSGTEFTLTISSLQSEDFAIYYCQQYVDWPRTFGQGTTVEIK | – | < 0.1
6 | IMPI-055 (antibody, V domains shown) VH: QVQLVQSGAEVKKPGASVKVSCKASGYTFTSYDINWVRQATGQGLEWMGWMNPNSGNTGYAQKFQGRVTMTRDTSINTAYMELSSLRSEDTAVYFCARGGRYCSDVTCYSGEPFDYWGQGTLVTVSS VL: EIMLTQSPDFQSVTPKEKVTITCRASQSIGSSLHWYQQKPDQSPKLLIKFASQSISGVPSRFSGSGSGTDFTLTINSLEAEDAAAYYCHQSSSLPHTFGPGTKVEIK | -10.3 | –
7 | IMPI-027 (antibody, V domains shown) VH: QVQLQESGPGLVKPSQTLSLTCTVSGGSISSYGYYWNWIRQHPGKGLEWIGYIYYSGSTYYNPSLKSRVTISVDTSKNQLSLRLNSVSAADTAVYYCARDFGGNSNYFDYWGQGTLVTVSS VL: AIQLTQSPSSLSASVGDRVTITCRTSQGISSALAWYQQKPGKAPKLLIYDASSLESGVPSRFSGSGSGTDFTLTISSLQPEDFATYYCQQFNSYPLTFGGGTKVEIK | 7.5 | –
8 | IMPI-022 (antibody, V domains shown) VH: EVQLVESGGGLVQPGRSLRLSCAASGFTFDDYAMHWVRQAPGKGLEWVSGITWNSGSIGYADSVKGRFTISRDNAKNSLYLHMNSLRVEDTALYYCAKDLQGDYYYYGVDVWGQGTTVTVSS VL: AIQLTQSPSSLSASVGDRVTITCRASQGISSALAWYQQKPGKAPKLLLYDASSLVSGVPSRFSGSRSGTDFTLTISSLQPEDFATYYCQQFISYPLTFGGGTRVEIK | -9.7 | –
9 | IMPI-033 (antibody, V domains shown) VH: QVQLQESGPGLVKPSQTLSLTCTVSGGSISSYGYYWSWIRQHPGKGLEWIGYIYYSGSTYYNPSLKSRVTMSVDTSKNQLSLRLNSVSAADTAVYYCARDFGGNSNYFDYWGQGTLVTVSS VL: AIQLTQSPSSLSASVGDRVTITCRASQGISSALAWYQQKPGKAPNLLIYDASSLESGVPSRFSGSGSGTDFTLTISSLQPEDFATYYCQQFNSSPLTFGGGTKVEIK | -3.6 | –
10 | IMPI-005 (antibody, V domains shown) VH: EVQLVESGGGLIQPGGSLRLSCAASGFTVSSNYMNWVRQAPGKGLEWVSVIYSGGSTYYADSVKGRFTISRDNSKNTLFLQMNSLRAEDSAVYYCARDLGPYGVDVWGQGTTVTVSS VL: DIQLTQSPSFLSASVGDRVTITCWASQGISSYLAWYQQKPGKAPKLLIYAASTLQSGVPSRFSGSGSGTEFTLTISSLQPEDFATYYCQELNSYPLTFGQGTRLEIK | -1.8 | –
11 | IMPI-047 (antibody, V domains shown) VH: EVQLVESGGGLIQPGGSLRLSCAASGFTVSSNYMNWVRQAPGKGLEWVSVIYSGGSTYYADSVKGRFTISRDNSKNTLYLQMNSLRTEDTAVYYCARDLVAYGMDVWGQGTTVTVSS VL: DIQLTQSPSFLSASVGDRVTITCWASQGISSYLAWYQQKPGKAPKVLIYAASTLQSGVPSRFSGSGSGTEFTLTISSLQPEDFATYYCQLLNSNPLTFGGGTKVEIK | 4.3 | –
12 | YANG-1103 (antibody, V domains shown) VH: EVQMVESGGGLIQPGGSLRLSCAASGLTVSSNYMSWVRQAPGKGLEWVSVIYSGGSTFYADSVKDRFTISRDNSKNTLYLQMNSLRAEDTAVYYCARENWNYVFDCWGQGTLVTVSS VL: DIQLTQSPSFLSASVGDRVTITCWASQGISSYLAWYQQKPGKAPKLLIYAASTLQSGVPSRFSGSGSGTEFTLTISSLQPEDFATYYCQQLNSHPIIFGQGTRLEIK | – | < 0.1
13 | YANG-1105 (antibody, V domains shown) VH: EVQVVESGGGLIQPGGSLRLSCAASGITVSRNYMNWVRQAPGKGLEWVSVIYSGGSTFYADSVKGRFTISRDNSKNTLYLQMNSLRADDTGVYYCAREGYGMDVWGQGTTVTVSS VL: DIQLTQSPSFLSASVGDRVTITCWASQGISSYLAWYQQKPGKAPKLLIYSASTLQSGVPSRFSGSGSGTEFTLTINSLQPEDFATYYCQQLNSHPCSFGQGTKLEIK | – | < 0.1
14 | IMPI-017 (antibody, V domains shown) VH: EVQLVESGGGLIQPGGSLRLSCAAAGLTVSSNYMNWVRQVPGKGLEWVSVIYSGGSTYYADSVKGRFTISRDNSKNTLYLQMNSLRAEDTAVYYCARDLGTLGMDVWGQGTTVTVSS VL: DIQLTQSPSFLSASVGDRVTITCWASQGISTYLAWYQQKPGKAPKLLIYAASTLQSGVPSRFSGSGSGTEFTLTISSLQPEDFATYYCQQLNSYLPTFGQGTKVEIK | 13 | –
15 | IMPI-037 (antibody, V domains shown) VH: not shown VL: DIQLTQSPSFLSASVGDRVTITCWASQGINSYLAWYQQKPGKAPKLLIYAASTLQSGVPSRFSGSGSGTEFTLTISSLQPEDFTTYYCQQFNDYPRTFGPGTKVEIK | -2 | –
16 | YANG-1107 (antibody, V domains shown) VH: EVQMVESGGGLIQSGGSLRLSCAASGLSVSSNYMSWVRQAPGKGLEWVAVIYSGGSIFYADSVKDRFTISRDNSKNTLYLQMNSLRAEDTAVYYCARENWNYVFDCWGQGTLVTVSS VL: DIQLTQSPSFLSASVGDRVTITCWASQGISTYLAWYQQKPGKAPKLLIYAASTLQSGVPSRFSGSGSGTEFTLTISSLQPEDFATYYCQQLSSHPIIFGQGTRLEIK | – | < 0.1
17 | IMPI-021 (antibody, V domains shown) VH: EVQLVESGGGLIQPGGSLRLSCAASGVTVSSNYMSWVRQAPGKGLEWVSVIYSGGSTFYADSVKGRFTISRDNSKNTLYLQMNSLRAEDTAVYYCARDLSYYGMDVWGQGTTVTVSS VL: DIQLTQSPSFLSASVGDRVTITCWASQGISSYLAWYQQKPGKAPKLLIYAASTLQSGVPSKFSGSGSGTEFTLTISSLQPEDFATYYCQQLNSYPCSFGQGTKLEIK | -0.3 | –
18 | IMPI-060 (antibody, V domains shown) VH: EVQLVESGGGLIQPGGSLRLSCAASGVTVSSNYMSWVRQAPGKGLEWVSVIYSGGSTFYADSVKGRFTISRDNSKNTLYLQMNSLRAEDTAVYYCARDLSYYGMDVWGQGTTVTVSS VL: DIQLTQSPSFLSASVGDRVTITCWASQGISSYLAWYQQKPGKAPKLLIYAASTLQSGVPSKFSGSGSGTEFTLTISSLQPEDFATYYCQQLNSYPSSFGQGTKLEIK | 6 | –
19 | YANG-1101 (antibody, V domains shown) VH: QLQLQESGPGLVKPSETLSLTCTVSGGSISSSSYYWGWIRQPPGKGLEWIGSIYYSGSIYYNPSLKSRVTISVDTSKNQFSLKLSSVTAADTAVYYCASWFGEFLKADAFDIWGQGTMVTVSS VL: QSALTQPASVSGSPGQSITISCTGTSSDVGGYSYVSWYQQHPGKAPKLMIYDVSKRPSGVSNRFSGSKSGNTASLTISGLQAEDEADYYCCSYAGGSTFVVFGGGTKLTVL | – | < 0.1
20 | IMPI-059 (antibody, V domains shown) VH: EVQLVESGGGLIQPGGSLRLSCAASGFTVSSIYMSWVRQAPGKGLEWVSIIYSRGSTDYADSVKGRFTISRDISKNTLYLQMNSLRAEDTAVYYCARDGTMVRGVHAFDIWGQGTMVTVSS VL: DIQMTQSPPSLSASIGDRVTITCQASQDISNYLNWYQQKPGKAPKLLIYDASNLETGVPSRFSGSGSGTDFTLTISNLQPEDIVTYYCQQYDNLPSSFGQGTKLEIK | -2.7 | –
21 | IMPI-032 (antibody, V domains shown) VH: QVQLQESGPGLVKPSGTLSLTCAVSGGSISSNKWWSWVRQPPGKGLEWIGEIDHSGSTMYNPSLKSRVTISVDKSKNQFSLKLNSVTAADTAVYYCTGEGYNWNYWGQGTRVTVSS VL: DVVMTQSPLSLPVTLGQTASISCRSSQSLLYTDGNTYLSWFQQRPGQSPRRLIYKVSKWESGVPDRFSGSGSGTDFTLKISRVEAEDVGIYYCMQGTHWPLTFGGGTKVEIK | -8 | –
22 | IMPI-006 (antibody, V domains shown) VH: QLQLQESGPGLVKPSETLSLTCTVSGGSISNSNYYWGWIRQPPGKGLEWIGSIYYSGRTYYNPSLKSRVTISVDTSKNQFSLKLSSVTAADTAVYYCARMGLLWFGEFYGMDVWGQGTTVTVSS VL: DIQMTQSPSSLSASVGDRVTITCRASQGISSWLAWYQQKPEKAPKSLIYDASSLQRGVPSRFSGSGSGTDFTLTISSLQPEDFASYYCQQYNSYPLTFGGGTRVEIK | 40.7 | –

From patent publication US20250026813A1 (published 2025)
